# Assay results: patent publication WO2015109212A1 (dated 2015)
# T1: mouse IL-2 (Peprotech #212-12) (mouse, UniProt P04351 21-169)
# T1 construct: Bought
# T1 sequence (looked up): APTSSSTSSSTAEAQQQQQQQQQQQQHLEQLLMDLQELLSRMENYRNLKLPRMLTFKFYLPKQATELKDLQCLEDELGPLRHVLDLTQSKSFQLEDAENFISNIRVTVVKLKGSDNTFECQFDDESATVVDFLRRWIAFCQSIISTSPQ
# B1: 24E7 (antibody, IgG1, V domains shown)
# VH: QVQLVQSGAEVKKPGESLKISCKGSGYSFTSYWIGWVRQMPGKGLEWMGIIYPGDSDTRYSPSFQGQVTISADKSISTAYLQWSSLKASDTAMYYCARETLAAVGSNYYYYGMDVWGQGTTVTVSS
# VL: SYELTQPPSVSVSPGQTARITCSGDALPRKYAYWYQQKSGQAPVLVIYEDSKRPSGIPERFSGSSSGTMATLTISGAQVEDEADYYCYSTDRSGNFWVFGGGTKVTVL
# notes: also called mAb 24E7
# B2: 16B2 (antibody, IgG1, V domains shown)
# VH: QVQLVQSGAEVKKPGASVKVSCKASGYTFTSYGISWVRQAPGQGLEWMGWISAYNGNTNYAQKLQGRVTMTTDTSTSTAYMELRSLRSDDTAVYYCAREGAIYYDSSGYYFPFDYWGQGTLVTVSS
# VL: SYELTQPPSVSVSPGQTARITCSGDALPRKFAYWYQQKSGQAPVMVIYGDSKRPPGIPERFSGSSSGTMATLTITGAQVEDEADYYCYSTDSGGDVSVFGGGTKLTVL
# notes: also called mAb 16B2
# How the values were obtained:
# [1] = target: T1, mouse IL-2 (Peprotech #212-12); experiment: told in Example 10; method not named there (SPR in Example 4)
# [2] = target: T2, Human IL-2 (Humanzyme, HumanKine IL-2) (human, UniProt P60568 21-153); experiment: SPR (Biacore T200), antibody captured, human IL-2 injected
# T2 construct: Bought; also called hIL-2
# T2 sequence (P60568 21-153 limits assumed): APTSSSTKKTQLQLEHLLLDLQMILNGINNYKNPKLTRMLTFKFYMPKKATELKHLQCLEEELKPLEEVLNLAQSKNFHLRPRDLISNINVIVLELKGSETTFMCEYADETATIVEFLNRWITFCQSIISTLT
Binder,binding result [1],binding result [2]
B1,binds,binds
B2,binds,binds
